The record followed here is US20100048462A1, “TRUNCATED PTH PEPTIDES WITH A CYCLIC CONFORMATION” (Zealand Pharma A/S, priority 2006, published 2010).

Assay [1] has as its target Saos-2 PTH1R (UniProt Q03431). Nature of the assay: cell-based or functional assay.
Assay [2] has as its target T1, Saos-2 PTH1R (Homo sapiens, UniProt Q03431).
T1 construct: endogenous in cells; host or cells: Saos-2
T1 sequence (Q03431 27-593): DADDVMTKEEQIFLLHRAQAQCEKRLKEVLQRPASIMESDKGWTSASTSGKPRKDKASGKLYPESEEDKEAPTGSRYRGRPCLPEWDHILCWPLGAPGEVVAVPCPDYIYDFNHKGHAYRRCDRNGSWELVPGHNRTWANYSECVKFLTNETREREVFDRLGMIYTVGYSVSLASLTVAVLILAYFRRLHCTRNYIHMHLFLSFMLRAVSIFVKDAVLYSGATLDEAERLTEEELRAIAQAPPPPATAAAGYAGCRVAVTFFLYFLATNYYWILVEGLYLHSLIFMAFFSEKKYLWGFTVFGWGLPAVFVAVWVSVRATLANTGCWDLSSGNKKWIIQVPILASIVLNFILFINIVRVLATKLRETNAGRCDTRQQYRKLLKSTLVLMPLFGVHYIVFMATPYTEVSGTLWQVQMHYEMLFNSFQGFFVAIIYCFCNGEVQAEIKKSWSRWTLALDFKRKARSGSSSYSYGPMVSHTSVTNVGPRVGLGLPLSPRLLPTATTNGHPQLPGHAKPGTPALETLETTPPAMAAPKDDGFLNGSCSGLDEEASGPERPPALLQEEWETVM
Nature of the assay: cAMP-efficacy assay in Saos-2 cells. The assay is classed as cell-based. The method, then:
Peptides were dissolved in phosphate buffered saline and further diluted in Tyrode's buffer (TB, Sigma-Aldrich) containing 0.1% BSA and 100 μM isobutyl-methyl-xanthine (IBMX, Sigma-Aldrich). Saos-2 cells were seeded at 50,000 cells/well in 96-microtiter plates and grown for two days before the efficacy assays. On the day of analysis, the growth medium was carefully removed by suction. Cells were washed once with 200 μl TB/0.1% BSA. The buffer was replaced with 100 μl reaction mixture (±test peptide), and incubated at 37° C. for 15 min. The reaction was stopped by addition of 25 μl of ice-cold 0.5 M HCl. Cells were in the following incubated on ice for 60 min. 75 μl acetate-buffer, pH6.2, was added to each well of a 96-well cAMP FlashPlate (Perkin-Elmer). […] FlashPlates were incubated overnight at 4° C., emptied by suction and counted in a TopCounter (Packard).
Determinations were performed in single determinations or triplicates at all doses. […] Standards were included as single determinations, duplicates or triplicates in each experiment, preferentially on each plate.
Concentration-dependent cAMP responses were imported into GraphPad Prism vers. 4 (GraphPad Software), transformed and plotted. […] Thus, a four-parameter logistic equation was used for determination of the EC50 values. Curves were fitted with a function for sigmoidal dose response curve (variable slope) non-linear fit Y=Bottom+(Top-Bottom)/(1+10̂((LogEC50−X)*HillSlope)) where X is the logarithm of concentration and Y is the response. Y starts at Bottom and goes to Top with a sigmoid shape. pEC50, Hill-coefficient and the maximally inducible concentration of cAMP (Emax) were evaluated.
Overall statistical differences were analyzed with Statistica (Statsoft) using one-way ANOVA. Post-hoc comparisons were made by the use of Fisher's Least Significance Test. Results were considered significant, when p was lower than 0.05.

Square brackets hold non-standard residues; d marks the D form. Peptide text beside a SMILES is read from it. hArg = N=C(N)NCCCC[C@H](N)C(=O)O; Ac5c = NC1(C(=O)O)CCCC1; Aib = CC(C)(N)C(=O)O

“H-Ac5c-Val-Ac5c-Glu-Ile-Gln-Leu-Leu-His-Gln-Har-Ala-Lys( )-Trp-Leu-Asn-Asp( )-NH2 (peptide)”: in the assay with Saos-2 PTH1R [1], the Emax, cAMP efficacy assay in Saos-2 cells (14T, trifluoroacetate salt) (relative to control (SEQ ID NO: 32)) is 1.03 and the pEC50, cAMP efficacy assay in Saos-2 cells (14T, trifluoroacetate salt) was 7.45 -log(M).
On to “H-Ac5c-Val-Nva-Glu-Ile-Gln-Leu-Leu-His-Gln-Har-Ala-Lys( )-Trp-Leu-Asn-Asp( )-NH2 (peptide)”, for which, in the assay with Saos-2 PTH1R [1], the Emax, cAMP efficacy assay in Saos-2 cells (16T, trifluoroacetate salt) (relative to control (SEQ ID NO: 32)) is 1.03 and the pEC50, cAMP efficacy assay in Saos-2 cells (16T, trifluoroacetate salt) was 6.92 -log(M).
In the case of “H-Nva-Val-Aib-Glu-Ile-Gln-Leu-Leu-His-Gln-Har-Ala-Lys( )-Trp-Leu-Asn-Asp( )-NH2 (peptide)”, in the assay with Saos-2 PTH1R [1], the Emax, cAMP efficacy assay in Saos-2 cells (12T, trifluoroacetate salt) (relative to control (SEQ ID NO: 32)) is 1.04 and the pEC50, cAMP efficacy assay in Saos-2 cells (12T, trifluoroacetate salt) is 6.99 -log(M).
Consider H-[Ac5c]V[Aib]EIQLMHQ[hArg]AKWLND-OH, for which, in the assay with Saos-2 PTH1R [1], the Emax, cAMP efficacy assay in Saos-2 cells (38T, trifluoroacetate salt) (relative to control (SEQ ID NO: 32)) is 1.2 and the pEC50, cAMP efficacy assay in Saos-2 cells (38T, trifluoroacetate salt) was 7 -log(M).
For “H-Ac5c-Val-Aib-Glu-Ile-Gln-Leu-Met-His-Gln-Har-Ala-Asp( )-Trp-Leu-Asn-Lys( )-NH2 (peptide)”, in the assay with Saos-2 PTH1R [1], the Emax, cAMP efficacy assay in Saos-2 cells (6T, trifluoroacetate salt) (relative to control (SEQ ID NO: 32)) came out at 1.5 and the pEC50, cAMP efficacy assay in Saos-2 cells (6T, trifluoroacetate salt) is 6.9 -log(M).
By EC50 is commonly meant the concentration that produces a half-maximal response. `CC[C@H](C)[C@H](NC(=O)[C@H](CCC(=O)O)NC(=O)C(C)(C)NC(=O)[C@@H](NC(=O)C1(N)CCCC1)C(C)C)C(=O)N[C@@H](CCC(N)=O)C(=O)N[C@@H](CC(C)C)C(=O)N[C@@H](CCSC)C(=O)N[C@@H](Cc1c[nH]cn1)C(=O)N[C@@H](CCC(N)=O)C(=O)N[C@@H](CCCCNC(=N)N)C(=O)N[C@@H](C)C(=O)N[C@@H](CCCCN)C(=O)N[C@@H](Cc1c[nH]c2ccccc12)C(=O)N[C@@H](CC(C)C)C(=O)N[C@@H](CC(N)=O)C(=O)N[C@@H](CC(=O)O)C(=O)O` [SEQ ID NO: 38, H-Ac5c-Val-Aib-Glu-Ile-Gln-Leu-Met-His-Gln-Har-Ala-Lys-Trp-Leu-Asn-Asp-OH] (H-[Ac5c]V[Aib]EIQLMHQ[hArg]AKWLND-OH): at Saos-2 PTH1R [2] (cAMP, 100 μM IBMX, 37° C. 15 min, suffix of label = salt tested), the EC50 is 100 nM. Besides, the “Emax ± SEM” value on Saos-2 PTH1R [2] (relative effect to the control (SEQ ID NO: 32)) came to 1.2.
Turning to “H-Ac5c-Val-Aib-Glu-Ile-Gln-Leu-Leu-His-Gln-Har-Arg-Lys( )-Trp-Leu-Asn-Asp( )-NH2 (peptide)”, in the assay with Saos-2 PTH1R [1], the Emax, cAMP efficacy assay in Saos-2 cells (28T, trifluoroacetate salt) (relative to control (SEQ ID NO: 32)) stood at 0.95 and the pEC50, cAMP efficacy assay in Saos-2 cells (28T, trifluoroacetate salt) is 8.27 -log(M).
On to “H-Ac5c-Val-Aib-Glu-Ile-Gln-Leu-Leu-His-Gln-Har-Ala-Lys( )-Trp-Leu-Asp-Asp( )-NH2 (peptide)”, for which, in the assay with Saos-2 PTH1R [1], the Emax, cAMP efficacy assay in Saos-2 cells (22T, trifluoroacetate salt) (relative to control (SEQ ID NO: 32)) turned out to be 1.08 and the pEC50, cAMP efficacy assay in Saos-2 cells (22T, trifluoroacetate salt) was 7.13 -log(M).
